Tested on: TAFA4
Test: TAFA4 synthesis in normal human keratinocyte culture supernatant, dot blot
Type: cell-based
Settings: 72 hours of incubation, EGF 30 ng/ml, versus KGM medium control set to 100%, statistically significant
Protocol: Normal human keratinocytes (NHK) have been used in this study. They come from Promocell (Germany). The cells are seeded at 100,000 cells/well in the 24-well plates in KGM. After 24 hours, the cells are incubated with the compound shown in the table below in KBM+P/S medium at 37° C., 5% CO2.
After 72 hours of incubation, the supernatants and protein extracts (obtained from the cell layer) were recovered and stored at −80° C.
After 72 hours of incubation at 37° C., 5% CO2, the supernatants and protein extracts (obtained from the cell layer) are recovered and stored at −80° C.
Before assaying the TAFA4 protein, an evaluation of the toxicity of the compounds is performed using the MTT test. Only the concentrations making it possible to obtain a viability greater than 80% are selected to be quantified by ELISA and dot blot.
The results are expressed as a percentage of TAFA4 expression by standardising the control to 100% (KGM medium control). The data have been obtained from an independent experiment carried out in triplicate.

B1: EGF: epidermal growth factor protein, AF-100-15, Peprotech (protein, UniProt P01133 23-1207, looked up)
Pro-epidermal growth factor: PQHWSCPEGTLAGNGNSTCVGPAPFLIFSHGNSIFRIDTEGTNYEQLVVDAGVSVIMDFHYNEKRIYWVDLERQLLQRVFLNGSRQERVCNIEKNVSGMAINWINEEVIWSNQQEGIITVTDMKGNNSHILLSALKYPANVAVDPVERFIFWSSEVAGSLYRADLDGVGVKALLETSEKITAVSLDVLDKRLFWIQYNREGSNSLICSCDYDGGSVHISKHPTQHNLFAMSLFGDRIFYSTWKMKTIWIANKHTGKDMVRINLHSSFVPLGELKVVHPLAQPKAEDDTWEPEQKLCKLRKGNCSSTVCGQDLQSHLCMCAEGYALSRDRKYCEDVNECAFWNHGCTLGCKNTPGSYYCTCPVGFVLLPDGKRCHQLVSCPRNVSECSHDCVLTSEGPLCFCPEGSVLERDGKTCSGCSSPDNGGCSQLCVPLSPVSWECDCFPGYDLQLDEKSCAASGPQPFLLFANSQDIRHMHFDGTDYGTLLSQQMGMVYALDHDPVENKIYFAHTALKWIERANMDGSQRERLIEEGVDVPEGLAVDWIGRRFYWTDRGKSLIGRSDLNGKRSKIITKENISQPRGIAVHPMAKRLFWTDTGINPRIESSSLQGLGRLVIASSDLIWPSGITIDFLTDKLYWCDAKQSVIEMANLDGSKRRRLTQNDVGHPFAVAVFEDYVWFSDWAMPSVMRVNKRTGKDRVRLQGSMLKPSSLVVVHPLAKPGADPCLYQNGGCEHICKKRLGTAWCSCREGFMKASDGKTCLALDGHQLLAGGEVDLKNQVTPLDILSKTRVSEDNITESQHMLVAEIMVSDQDDCAPVGCSMYARCISEGEDATCQCLKGFAGDGKLCSDIDECEMGVPVCPPASSKCINTEGGYVCRCSEGYQGDGIHCLDIDECQLGEHSCGENASCTNTEGGYTCMCAGRLSEPGLICPDSTPPPHLREDDHHYSVRNSDSECPLSHDGYCLHDGVCMYIEALDKYACNCVVGYIGERCQYRDLKWWELRHAGHGQQQKVIVVAVCVVVLVMLLLLSLWGAHYYRTQKLLSKNPKNPYEESSRDVRSRRPADTEDGMSSCPQPWFVVIKEHQDLKNGGQPVAGEDGQAADGSMQPTSWRQEPQLCGMGTEQGCWIPVSSDKGSCPQVMERSFHMPSYGTQTLEGGVEKPHSLLSANPLWQQRALDPPHQMELTQ
modifications: Pro-epidermal growth factor
notes: epidermal growth factor protein, AF-100-15, Peprotech
Question: Which “effect on the synthesis of TAFA4 (modulation of TAFA4 in the NHK supernatant)” value does the source give for B1 here?
Answer: inhibits the synthesis of TAFA4

From patent US20260235581A1, “METHOD FOR THE SELECTION OF AN ECOBIOLOGICAL COMPOUND CAPABLE OF INCREASING THE SKIN TOLERANCE THRESHOLD” (NAOS INSTITUTE OF LIFE SCIENCE, priority 2023, published 2026)
